T1: human B-Cell Maturation Antigen (BCMA) (human, UniProt Q02223 1-54, limits assumed)
T1 construct: also called CD269; TNFRSF17
T1 sequence (looked up): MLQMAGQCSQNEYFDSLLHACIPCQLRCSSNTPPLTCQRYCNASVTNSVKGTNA

B1: anti-BCMA heavy chain-only antibody 308902, bivalent form (antibody, V domains shown)
VH: EVQLLESGGGLVQPGGSLRLSCAASGFTVSSYGMSWVRQAPGKGPEWVSGIRGSDGSTYYADSVKGRFTISRDNSKNTLYLQMNSLRAEDTAVYYCAKQGENDGPFDHRGQGTLVTVSS
notes: Heavy chain-only antibody with no light chain; UniAbs were expressed in HEK cells with CH1 deleted; also called UniAb 308902 (bivalent)
B2: anti-BCMA heavy chain-only antibody 308902, monovalent form (antibody, V domains shown)
VH: B1 VH
notes: Heavy chain-only antibody with no light chain; UniAbs were expressed in HEK cells with CH1 deleted; also called UniAb 308902 (monovalent)

Columns and labels:
HSA = target: T2, HSA (Homo sapiens); assay: ELISA on human serum albumin
T2 construct: off-target control antigen; also called human serum albumin

Lambda = target: T3, Lambda; assay: ELISA on human lambda protein
T3 construct: off-target control antigen; also called human lambda protein

BVP = target: T4, BVP; assay: ELISA on baculovirus protein extract (BVP)
T4 construct: polyreactivity control; a protein mixture; also called Baculo Virus Protein Extract; baculovirus protein
Protocol: Off-target binding to Baculo Virus Protein Extract (BVP) was conducted by ELISA as above, with the modification of using 1×PBS and 1% dry milk powder for the diluent. BVP extract was obtained from INSERM (Nantes, France).

[1] = target: T1, human B-Cell Maturation Antigen (BCMA); assay: BioLayer Interferometry, Octet QK384, kinetics mode
Protocol: (§1) As used herein, the “Kd” or “Kd value” refers to a dissociation constant determined by BioLayer Interferometry, using an Octet QK384 instrument (Fortebio Inc., Menlo Park, Calif.) in kinetics mode. For example, anti-mouse Fc sensors are loaded with mouse-Fc fused antigen and then dipped into antibody-containing wells to measure concentration dependent association rates (kon). Antibody dissociation rates (koff) are measured in the final step, where the sensors are dipped into wells containing buffer only. The Kd is the ratio of koff/kon.

[2] = target: T1, human B-Cell Maturation Antigen (BCMA); assay: BioLayer Interferometry, Octet QK384, kinetics mode; bivalent form
Protocol: as §1

IgG1k = target: T5, IgG1k; assay: ELISA, UniAb captures human IgG1 kappa, detection goat anti-human kappa HRP
T5 construct: off-target control antigen; also called human IgG1 kappa protein

[3] = target: T1, human B-Cell Maturation Antigen (BCMA); assay: ELISA, supernatant UniAb on human BCMA ECD (Abcam ab50089), detection goat anti-human IgG HRP
Protocol: Supernatants of 6 antibodies were tested for binding in a standard ELISA assay to a human BCMA. Binding to recombinant BCMA protein was determined by ELISA using human BCMA ECD obtained from Abcam (ab50089). The BCMA ECD protein was used at a concentration of 2 μg/mL to capture UniAbs at 50 ng/mL. […] All antibodies were diluted in 1×TBS with 0.05% Tween-20 and 1% dry milk powder.

[4] = target: T1, human B-Cell Maturation Antigen (BCMA); assay: BioLayer Interferometry, Octet QK384, kinetics mode; monovalent form
Protocol: as §1

T2 sequence (P02768 25-609): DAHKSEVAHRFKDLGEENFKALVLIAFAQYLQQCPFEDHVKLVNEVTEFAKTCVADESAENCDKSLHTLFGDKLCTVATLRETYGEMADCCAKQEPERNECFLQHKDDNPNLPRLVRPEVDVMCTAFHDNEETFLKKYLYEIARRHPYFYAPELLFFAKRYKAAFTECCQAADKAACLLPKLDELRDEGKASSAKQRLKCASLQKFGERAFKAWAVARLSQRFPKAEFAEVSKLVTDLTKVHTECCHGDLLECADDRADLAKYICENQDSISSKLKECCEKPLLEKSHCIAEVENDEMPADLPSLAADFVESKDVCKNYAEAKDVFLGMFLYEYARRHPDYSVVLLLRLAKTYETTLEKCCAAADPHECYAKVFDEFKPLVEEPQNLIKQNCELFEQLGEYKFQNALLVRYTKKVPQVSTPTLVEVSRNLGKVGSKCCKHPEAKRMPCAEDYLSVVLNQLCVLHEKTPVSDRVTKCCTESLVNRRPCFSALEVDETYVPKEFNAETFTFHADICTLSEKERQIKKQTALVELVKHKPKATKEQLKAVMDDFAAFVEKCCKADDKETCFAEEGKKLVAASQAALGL

Binder	ELISA Binding Ratio (expt signal / dilutent only) (HSA)	ELISA Binding Ratio (expt signal / dilutent only) (Lambda)	ELISA Binding Ratio (expt signal / dilutent only), BVPscore (BVP)	koff [1] [s⁻¹]	kon [1] [M⁻¹ s⁻¹]	Kd [2] [nM]	ELISA Binding Ratio (expt signal / dilutent only) (IgG1k)	ELISA Binding Ratio (expt signal / dilutent only) [3]	Kd [4] [nM]
B1	0.8	1.1	1.1	0.000177	3.38e+06	0.053	1.1	868	
B2				0.000719	923000				0.779
